The values below come from patent US6555340.

In assay [1] the target is cellular RAGE on human cells (HUVEC, Molt-4 cells, PBMC, Jurkat cells) (human) (UniProt Q15109). The assay is described as follows: cell-based or functional assay.
The target in assay [2] is purified soluble human RAGE (sRAGE), prepared from a baculovirus expression system (human) (UniProt Q15109). The assay is described as follows: binding to immobilised RAGE in wells.
Assay [3] deals with RAGE on macrophages / macrophage-like cultured BV2 cells (MP RAGE) (UniProt Q62151). The assay is described as follows: binding to macrophages in culture wells.
In assay [4] the target is RAGE on cultured bovine aortic endothelial cells (BAEC RAGE) (bovine) (UniProt Q28173). As to the kind of experiment: binding to endothelial cells in culture wells.
For assay [5], the target named is cellular RAGE on human cells (HUVEC, Molt-4 cells, PBMC, Jurkat cells) (human, UniProt Q15109 23-404). The assay is described as follows: cell-based or functional assay.
For assay [6], the target named is T1, RAGE on cultured bovine aortic endothelial cells (BAEC RAGE) (bovine, UniProt Q28173 23-416).
T1 construct: whole, on cells; also called BAECs; endothelial (EC) RAGE
T1 sequence (looked up): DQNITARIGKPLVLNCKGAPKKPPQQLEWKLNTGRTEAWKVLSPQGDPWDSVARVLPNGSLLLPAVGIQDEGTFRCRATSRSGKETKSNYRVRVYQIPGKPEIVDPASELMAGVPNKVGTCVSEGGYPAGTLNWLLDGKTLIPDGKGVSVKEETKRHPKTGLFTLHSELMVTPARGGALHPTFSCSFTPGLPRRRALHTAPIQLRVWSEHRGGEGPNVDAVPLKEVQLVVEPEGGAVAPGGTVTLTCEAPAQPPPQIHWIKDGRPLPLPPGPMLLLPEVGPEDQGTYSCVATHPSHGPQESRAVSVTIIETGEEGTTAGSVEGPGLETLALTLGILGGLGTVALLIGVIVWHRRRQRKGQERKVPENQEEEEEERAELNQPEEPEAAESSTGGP
As to the kind of experiment: radioligand binding on cultured bovine aortic endothelial cells. On the procedure:
These experiments were performed at least five times with analogous results.
Purified EN-RAGE was radiolabelled using ^125-I and Iodobeads (Pierce) to a specific activity of approximately 5,000 cpm/ng. Radioligand binding assays were performed in 96-well dishes to which had been adsorbed either purified human RAGE (5 µg/well) or bovine aortic endothelial cells. In the former case, after adsorption of human soluble RAGE to the plastic dish in carbonate/bicarbonate buffer (pH 9.3) overnight, wells were then washed with PBS containing Tween 20 (0.05%). Unoccupied binding sites on the plastic wells were blocked by incubation with PBS containing calcium/magnesium and bovine serum albumin (1%) for two hours at 37° C. […] Solution was then aspirated from the wells and counted in a gamma counter (LKB, Gaithersburg, Md.). […] Equilibrium binding data were analyzed according to the equation of Klotz and Hunston (Klotz and Hunston, 1984): B=nKA/1+KA, where B=specifically bound ligand (total binding, wells incubated with tracer alone, minus nonspecific binding, wells incubated with tracer in the presence of excess unlabelled material), n=sites/cell, K=the […] constant, and A=free ligand concentration) using nonlinear least-squares analysis (Prism; San Diego, Calif.). […]

For assay [7], the target named is T2, purified soluble human RAGE (sRAGE), prepared from a baculovirus expression system (human, UniProt Q15109 23-342).
T2 construct: extracellular domain; Adsorbed to plastic wells at 5 µg/well or to Affi-gel resin; also called soluble RAGE; human soluble RAGE
The assay is described as follows: radioligand binding, 125-I EN-RAGE ± 50-fold unlabelled EN-RAGE on immobilised human sRAGE. On the procedure:
Radioligand binding assays were performed employing the indicated concentration of ^125-I EN-RAGE in the presence or absence of excess unlabelled EN-RAGE (50-fold). […] Where indicated, radiolabelled EN-RAGE (100 nM) was incubated with the indicated amount of excess sRAGE two hours prior to binding assay, or wells were preincubated for two hours with the indicated concentration of rabbit nonimmune IgG, or polyclonal monospecific rabbit anti-EN-RAGE IgG or anti-RAGE IgG prior to binding assay and results reported as % maximal specific binding±SD of the mean. These experiments were performed at least five times with analogous results.
Purified EN-RAGE was radiolabelled using ^125-I and Iodobeads (Pierce) to a specific activity of approximately 5,000 cpm/ng. Radioligand binding assays were performed in 96-well dishes to which had been adsorbed either purified human RAGE (5 µg/well) or bovine aortic endothelial cells. In the former case, after adsorption of human soluble RAGE to the plastic dish in carbonate/bicarbonate buffer (pH 9.3) overnight, wells were then washed with PBS containing Tween 20 (0.05%). Unoccupied binding sites on the plastic wells were blocked by incubation with PBS containing calcium/magnesium and bovine serum albumin (1%) for two hours at 37° C. […] Solution was then aspirated from the wells and counted in a gamma counter (LKB, Gaithersburg, Md.). […]

In assay [8] the target is T2, purified soluble human RAGE (sRAGE), …. The assay is described as follows: elution from RAGE-Affi-gel resin; radioligand binding assay. The text has this: Isolation and purification of EN-RAGE. Bovine lung acetone powder (SIGMA@) was subjected to solubilization in buffer containing tris (0.02M, pH 7.4); NaCl (0.15M); octyl-β-glucoside (1%); and protease inhibitors (PMSF and aprotinin). After serial chromatography onto SP sepharose (Pharmacia LKB®), and affi-gel 10 resin (BIO-RAD®) to which had been adsorbed purified soluble human RAGE (prepared from a baculovirus expression system), RAGE-binding proteins were identified based on a screening assay employing immobilized column fraction (Nunc Maxisorp dishes) (NUNC®) and ^125-I-labelled sRAGE as above. After elution with heparin-containing buffer (1 mg/ml), positive fractions were identified. RAGE-binding proteins were subjected to sequence analysis.

Chain of cellular RAGE on human cells (HUVEC, Molt-4 cells, PBMC, Jurkat cells) (human) (Q15109 23-404): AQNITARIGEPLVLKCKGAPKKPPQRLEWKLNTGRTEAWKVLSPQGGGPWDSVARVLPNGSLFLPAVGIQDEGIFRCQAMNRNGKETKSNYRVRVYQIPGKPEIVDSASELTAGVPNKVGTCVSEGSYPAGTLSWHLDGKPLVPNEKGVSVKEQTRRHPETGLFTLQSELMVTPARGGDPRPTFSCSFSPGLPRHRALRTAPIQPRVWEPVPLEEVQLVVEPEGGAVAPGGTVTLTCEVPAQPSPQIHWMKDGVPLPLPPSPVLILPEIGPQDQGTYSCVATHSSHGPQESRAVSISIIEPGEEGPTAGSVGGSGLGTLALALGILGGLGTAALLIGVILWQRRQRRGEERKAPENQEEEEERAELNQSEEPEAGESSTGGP
Chain of cellular RAGE on human cells (HUVEC, Molt-4 cells, PBMC, Jurkat cells) (Q15109 23-404): as above
T2 sequence (Q15109 23-342): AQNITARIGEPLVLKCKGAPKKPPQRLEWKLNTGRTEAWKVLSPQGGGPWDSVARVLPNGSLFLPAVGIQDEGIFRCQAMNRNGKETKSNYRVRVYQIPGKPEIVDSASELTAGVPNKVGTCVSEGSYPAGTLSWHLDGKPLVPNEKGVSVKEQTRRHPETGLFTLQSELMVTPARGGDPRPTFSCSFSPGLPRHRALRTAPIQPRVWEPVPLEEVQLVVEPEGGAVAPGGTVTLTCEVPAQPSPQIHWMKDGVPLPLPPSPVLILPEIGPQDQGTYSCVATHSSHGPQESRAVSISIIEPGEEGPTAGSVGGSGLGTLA
Chain of purified soluble human RAGE (sRAGE), prepared from a baculovirus expression system (human) (Q15109 23-342): as above
Chain of RAGE on macrophages / macrophage-like cultured BV2 cells (MP RAGE) (Q62151 23-402 limits assumed): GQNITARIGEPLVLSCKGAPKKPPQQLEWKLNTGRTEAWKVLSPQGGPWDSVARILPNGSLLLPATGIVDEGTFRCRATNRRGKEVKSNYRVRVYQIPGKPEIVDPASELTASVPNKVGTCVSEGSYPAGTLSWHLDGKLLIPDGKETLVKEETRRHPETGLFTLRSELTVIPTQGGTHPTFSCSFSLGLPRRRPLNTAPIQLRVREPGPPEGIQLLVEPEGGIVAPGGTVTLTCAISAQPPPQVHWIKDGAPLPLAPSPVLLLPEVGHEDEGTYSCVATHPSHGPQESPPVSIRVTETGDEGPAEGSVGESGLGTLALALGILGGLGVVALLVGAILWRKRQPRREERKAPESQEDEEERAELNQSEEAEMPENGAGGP

In turn, “≈12 kDa RAGE-binding polypeptide isolated and purified from bovine lung extract, called EN-RAGE (from UniProt P79105 2-51) (ligand)” had an adhesion of Molt-4 cells to cultured ECs in assay [1] of 7 fold. The molecule further gave an expression of cell-surface VCAM-1 on cultured ECs in assay [1] of 4.3 fold. The Kd in assay [2], in assay [3] and in assay [4] was 75 nM in each case.

B1: recombinant bovine EN-RAGE (Extracellular Novel RAGE binding protein), expressed in Sf9 cells from a baculovirus system (ligand)
chain: TKLEDHLEGIINIFHQYSVRVGHFDTLNKRELKQLITKELPKTLQNTKDQPTIDKIFQDLDADKDGAVSFEEFVVLVSRVLKTAHIDIHK
modifications: radiolabelled with 125-I (Iodobeads) in the radioligand binding assays; unlabelled in the cell activation assays
notes: also called 125-I EN-RAGE; radiolabelled EN-RAGE
As for B1, the “nuclear NF-kB in HUVEC (EMSA, densitometry)” value in assay [5] stood at 5 fold. Moreover, the results for the Kd in assay [6] and in assay [7] were about 90.3 nM and about 91 nM, respectively.

B2: ≈23 kDa polypeptide from bovine lung extract, identified as amphoterin (ligand, UniProt P10103 2-215, looked up)
chain: GKGDPKKPRGKMSSYAFFVQTCREEHKKKHPDASVNFSEFSKKCSERWKTMSAKEKGKFEDMAKADKARYEREMKTYIPPKGETKKKFKDPNAPKRPPSAFFLFCSEYRPKIKGEHPGLSIGDVAKKLGEMWNNTAADDKQPYEKKAAKLKEKYEKDIAAYRAKGKPDAAKKGVVKAEKSKKKKEEEEDEEDEEDEEEEEDEEDEEEEEDDDDE
notes: The identification is cited to Hori et al., 1995
For B2, in assay [8], the binding result was “binds”.

B3: purified S100B from human brain (Calbiochem-Novabiochem) (ligand, UniProt P04271 2-92, looked up)
chain: SELEKAMVALIDVFHQYSGREGDKHKLKKSELKELINNELSHFLEEIKEQEVVDKVMETLDNDGDGECDFQEFMAFVAMVTTACHEFFEHE
In the case of B3, in assay [5], the “nuclear translocation of NF-kB in HUVEC (EMSA)” value was about 13.9 fold.
